Experimental data published in patent US20220298218A1 (ANTAG THERAPEUTICS, published 2022).
*1 amine or outer side, *2 acyl side, *3 side chain or, on linkers, in order; H or OH if unused. Where no end group is shown, it is not given here. Side-chain parts run from the residue outwards. The star is where a group is joined. C18 diacid = O=C(O)CCCCCCCCCCCCCCCCC(=O)*; C16 diacid = O=C(O)CCCCCCCCCCCCCCC(=O)*; γGlu = O=C(O)[C@H](CCC(=O)[*:2])N[*:1]; AEEA = NCCOCCOCC(=O)O

T1: human GIP receptor (human, UniProt P48546 22-466)
T1 sequence (looked up): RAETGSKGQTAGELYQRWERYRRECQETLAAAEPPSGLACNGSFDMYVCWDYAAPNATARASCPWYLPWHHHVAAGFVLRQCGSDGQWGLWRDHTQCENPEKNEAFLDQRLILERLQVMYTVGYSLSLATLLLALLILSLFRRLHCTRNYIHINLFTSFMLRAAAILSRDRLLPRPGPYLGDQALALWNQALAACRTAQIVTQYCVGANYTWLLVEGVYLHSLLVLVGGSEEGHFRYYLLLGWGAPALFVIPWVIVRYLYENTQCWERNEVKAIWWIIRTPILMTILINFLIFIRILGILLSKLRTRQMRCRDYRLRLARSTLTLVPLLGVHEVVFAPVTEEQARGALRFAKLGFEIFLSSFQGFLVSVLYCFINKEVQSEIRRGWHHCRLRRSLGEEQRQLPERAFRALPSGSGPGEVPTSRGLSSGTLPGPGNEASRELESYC

B1: AT441 (peptide)
peptide: SGTFISDYSIAMDRIK([AEEA-AEEA-γGlu-C18 diacid])QQDFVNWLLAQRGPSSGAPPPS-OH
modifications: N-terminus assumed
SMILES: CC[C@H](C)[C@H](NC(=O)[C@H](CO)NC(=O)[C@H](Cc1ccc(O)cc1)NC(=O)[C@H](CC(=O)O)NC(=O)[C@H](CO)NC(=O)[C@@H](NC(=O)[C@H](Cc1ccccc1)NC(=O)[C@@H](NC(=O)CNC(=O)[C@@H](N)CO)[C@@H](C)O)[C@@H](C)CC)C(=O)N[C@@H](C)C(=O)N[C@@H](CCSC)C(=O)N[C@@H](CC(=O)O)C(=O)N[C@@H](CCCNC(=N)N)C(=O)N[C@H](C(=O)N[C@@H](CCCCNC(=O)COCCOCCNC(=O)COCCOCCNC(=O)CC[C@H](NC(=O)CCCCCCCCCCCCCCCCC(=O)O)C(=O)O)C(=O)N[C@@H](CCC(N)=O)C(=O)N[C@@H](CCC(N)=O)C(=O)N[C@@H](CC(=O)O)C(=O)N[C@@H](Cc1ccccc1)C(=O)N[C@H](C(=O)N[C@@H](CC(N)=O)C(=O)N[C@@H](Cc1c[nH]c2ccccc12)C(=O)N[C@@H](CC(C)C)C(=O)N[C@@H](CC(C)C)C(=O)N[C@@H](C)C(=O)N[C@@H](CCC(N)=O)C(=O)N[C@@H](CCCNC(=N)N)C(=O)NCC(=O)N1CCC[C@H]1C(=O)N[C@@H](CO)C(=O)N[C@@H](CO)C(=O)NCC(=O)N[C@@H](C)C(=O)N1CCC[C@H]1C(=O)N1CCC[C@H]1C(=O)N1CCC[C@H]1C(=O)N[C@@H](CO)C(=O)O)C(C)C)[C@@H](C)CC
B2: AT469 (peptide)
peptide: EGTFISDYSIAMDKIK(C16 diacid)QQDFVNWLLAQKGPSSGAP-OH
modifications: N-terminus assumed
SMILES: CC[C@H](C)[C@H](NC(=O)[C@H](CO)NC(=O)[C@H](Cc1ccc(O)cc1)NC(=O)[C@H](CC(=O)O)NC(=O)[C@H](CO)NC(=O)[C@@H](NC(=O)[C@H](Cc1ccccc1)NC(=O)[C@@H](NC(=O)CNC(=O)[C@@H](N)CCC(=O)O)[C@@H](C)O)[C@@H](C)CC)C(=O)N[C@@H](C)C(=O)N[C@@H](CCSC)C(=O)N[C@@H](CC(=O)O)C(=O)N[C@@H](CCCCN)C(=O)N[C@H](C(=O)N[C@@H](CCCCNC(=O)CCCCCCCCCCCCCCC(=O)O)C(=O)N[C@@H](CCC(N)=O)C(=O)N[C@@H](CCC(N)=O)C(=O)N[C@@H](CC(=O)O)C(=O)N[C@@H](Cc1ccccc1)C(=O)N[C@H](C(=O)N[C@@H](CC(N)=O)C(=O)N[C@@H](Cc1c[nH]c2ccccc12)C(=O)N[C@@H](CC(C)C)C(=O)N[C@@H](CC(C)C)C(=O)N[C@@H](C)C(=O)N[C@@H](CCC(N)=O)C(=O)N[C@@H](CCCCN)C(=O)NCC(=O)N1CCC[C@H]1C(=O)N[C@@H](CO)C(=O)N[C@@H](CO)C(=O)NCC(=O)N[C@@H](C)C(=O)N1CCC[C@H]1C(=O)O)C(C)C)[C@@H](C)CC
B3: AT439 (peptide)
peptide: SGTFISDYSIAMDRIK([AEEA-AEEA-γGlu-C16 diacid])QQDFVNWLLAQRGPSSGAPPPS-OH
modifications: N-terminus assumed
SMILES: CC[C@H](C)[C@H](NC(=O)[C@H](CO)NC(=O)[C@H](Cc1ccc(O)cc1)NC(=O)[C@H](CC(=O)O)NC(=O)[C@H](CO)NC(=O)[C@@H](NC(=O)[C@H](Cc1ccccc1)NC(=O)[C@@H](NC(=O)CNC(=O)[C@@H](N)CO)[C@@H](C)O)[C@@H](C)CC)C(=O)N[C@@H](C)C(=O)N[C@@H](CCSC)C(=O)N[C@@H](CC(=O)O)C(=O)N[C@@H](CCCNC(=N)N)C(=O)N[C@H](C(=O)N[C@@H](CCCCNC(=O)COCCOCCNC(=O)COCCOCCNC(=O)CC[C@H](NC(=O)CCCCCCCCCCCCCCC(=O)O)C(=O)O)C(=O)N[C@@H](CCC(N)=O)C(=O)N[C@@H](CCC(N)=O)C(=O)N[C@@H](CC(=O)O)C(=O)N[C@@H](Cc1ccccc1)C(=O)N[C@H](C(=O)N[C@@H](CC(N)=O)C(=O)N[C@@H](Cc1c[nH]c2ccccc12)C(=O)N[C@@H](CC(C)C)C(=O)N[C@@H](CC(C)C)C(=O)N[C@@H](C)C(=O)N[C@@H](CCC(N)=O)C(=O)N[C@@H](CCCNC(=N)N)C(=O)NCC(=O)N1CCC[C@H]1C(=O)N[C@@H](CO)C(=O)N[C@@H](CO)C(=O)NCC(=O)N[C@@H](C)C(=O)N1CCC[C@H]1C(=O)N1CCC[C@H]1C(=O)N1CCC[C@H]1C(=O)N[C@@H](CO)C(=O)O)C(C)C)[C@@H](C)CC
B4: AT470 (peptide)
peptide: EGTFISDYSIAMDKIK(C16 diacid)QQDFVNWLLAQKGPSSGA-OH
modifications: N-terminus assumed
SMILES: CC[C@H](C)[C@H](NC(=O)[C@H](CO)NC(=O)[C@H](Cc1ccc(O)cc1)NC(=O)[C@H](CC(=O)O)NC(=O)[C@H](CO)NC(=O)[C@@H](NC(=O)[C@H](Cc1ccccc1)NC(=O)[C@@H](NC(=O)CNC(=O)[C@@H](N)CCC(=O)O)[C@@H](C)O)[C@@H](C)CC)C(=O)N[C@@H](C)C(=O)N[C@@H](CCSC)C(=O)N[C@@H](CC(=O)O)C(=O)N[C@@H](CCCCN)C(=O)N[C@H](C(=O)N[C@@H](CCCCNC(=O)CCCCCCCCCCCCCCC(=O)O)C(=O)N[C@@H](CCC(N)=O)C(=O)N[C@@H](CCC(N)=O)C(=O)N[C@@H](CC(=O)O)C(=O)N[C@@H](Cc1ccccc1)C(=O)N[C@H](C(=O)N[C@@H](CC(N)=O)C(=O)N[C@@H](Cc1c[nH]c2ccccc12)C(=O)N[C@@H](CC(C)C)C(=O)N[C@@H](CC(C)C)C(=O)N[C@@H](C)C(=O)N[C@@H](CCC(N)=O)C(=O)N[C@@H](CCCCN)C(=O)NCC(=O)N1CCC[C@H]1C(=O)N[C@@H](CO)C(=O)N[C@@H](CO)C(=O)NCC(=O)N[C@@H](C)C(=O)O)C(C)C)[C@@H](C)CC
B5: AT467 (peptide)
peptide: EGTFISDYSIAMDKIK(C16 diacid)QQDFVNWLLAQKGPSSGAPPP-OH
modifications: N-terminus assumed
SMILES: CC[C@H](C)[C@H](NC(=O)[C@H](CO)NC(=O)[C@H](Cc1ccc(O)cc1)NC(=O)[C@H](CC(=O)O)NC(=O)[C@H](CO)NC(=O)[C@@H](NC(=O)[C@H](Cc1ccccc1)NC(=O)[C@@H](NC(=O)CNC(=O)[C@@H](N)CCC(=O)O)[C@@H](C)O)[C@@H](C)CC)C(=O)N[C@@H](C)C(=O)N[C@@H](CCSC)C(=O)N[C@@H](CC(=O)O)C(=O)N[C@@H](CCCCN)C(=O)N[C@H](C(=O)N[C@@H](CCCCNC(=O)CCCCCCCCCCCCCCC(=O)O)C(=O)N[C@@H](CCC(N)=O)C(=O)N[C@@H](CCC(N)=O)C(=O)N[C@@H](CC(=O)O)C(=O)N[C@@H](Cc1ccccc1)C(=O)N[C@H](C(=O)N[C@@H](CC(N)=O)C(=O)N[C@@H](Cc1c[nH]c2ccccc12)C(=O)N[C@@H](CC(C)C)C(=O)N[C@@H](CC(C)C)C(=O)N[C@@H](C)C(=O)N[C@@H](CCC(N)=O)C(=O)N[C@@H](CCCCN)C(=O)NCC(=O)N1CCC[C@H]1C(=O)N[C@@H](CO)C(=O)N[C@@H](CO)C(=O)NCC(=O)N[C@@H](C)C(=O)N1CCC[C@H]1C(=O)N1CCC[C@H]1C(=O)N1CCC[C@H]1C(=O)O)C(C)C)[C@@H](C)CC
B6: AT468 (peptide)
peptide: EGTFISDYSIAMDKIK(C16 diacid)QQDFVNWLLAQKGPSSGAPP-OH
modifications: N-terminus assumed
SMILES: CC[C@H](C)[C@H](NC(=O)[C@H](CO)NC(=O)[C@H](Cc1ccc(O)cc1)NC(=O)[C@H](CC(=O)O)NC(=O)[C@H](CO)NC(=O)[C@@H](NC(=O)[C@H](Cc1ccccc1)NC(=O)[C@@H](NC(=O)CNC(=O)[C@@H](N)CCC(=O)O)[C@@H](C)O)[C@@H](C)CC)C(=O)N[C@@H](C)C(=O)N[C@@H](CCSC)C(=O)N[C@@H](CC(=O)O)C(=O)N[C@@H](CCCCN)C(=O)N[C@H](C(=O)N[C@@H](CCCCNC(=O)CCCCCCCCCCCCCCC(=O)O)C(=O)N[C@@H](CCC(N)=O)C(=O)N[C@@H](CCC(N)=O)C(=O)N[C@@H](CC(=O)O)C(=O)N[C@@H](Cc1ccccc1)C(=O)N[C@H](C(=O)N[C@@H](CC(N)=O)C(=O)N[C@@H](Cc1c[nH]c2ccccc12)C(=O)N[C@@H](CC(C)C)C(=O)N[C@@H](CC(C)C)C(=O)N[C@@H](C)C(=O)N[C@@H](CCC(N)=O)C(=O)N[C@@H](CCCCN)C(=O)NCC(=O)N1CCC[C@H]1C(=O)N[C@@H](CO)C(=O)N[C@@H](CO)C(=O)NCC(=O)N[C@@H](C)C(=O)N1CCC[C@H]1C(=O)N1CCC[C@H]1C(=O)O)C(C)C)[C@@H](C)CC

Molecular target: T1, human GIP receptor
Assay: cell-based or functional assay

In order of falling “cAMP agonism % Emax” value:
1. B1  0%
2. B2  0%
3. B3  0%
4. B4  0%
5. B5  0%
6. B6  0%

In order of falling “cAMP antagonism” value:
1. B1  21.5 nM
2. B4  20 nM
3. B3  14.7 nM
4. B5  14.7 nM
5. B6  12.6 nM
6. B2  3.8 nM

In order of rising “cAMP antagonism % inhib” value:
1. B5  86%
2. B1  89%
3. B4  91%
4. B6  92%
5. B2  93%
6. B3  93%

In order of falling “cAMP antagonism pIC50” value:
1. B2  8.4
2. B6  7.9
3. B3  7.8
4. B5  7.8
5. B1  7.7
6. B4  7.7

Molecular target: T1, human GIP receptor
Assay: cell-based or functional assay
Remark: another data set of the same source

In order of rising “cAMP antagonism” value:
1. B2  3 nM
2. B5  6 nM
3. B3  9 nM
4. B6  13 nM
5. B4  14 nM
6. B1  25 nM

In order of falling “cAMP antagonism % inhib” value:
1. B3  100%
2. B4  100%
3. B5  100%
4. B6  95%
5. B2  90%
6. B1  55%

In order of rising cAMP antagonism log:
1. B2  -8.5 log M
2. B5  -8.2 log M
3. B3  -8 log M
4. B6  -7.9 log M
5. B4  -7.8 log M
6. B1  -7.6 log M

For B6, the “cAMP agonism Emax” value was 4.6.
